Residue numbers refer to the chain shown, from its start. Square brackets hold non-standard residues; d marks the D form. Ends that are not written are not given here. Hyp = O=C(O)[C@@H]1C[C@@H](O)CN1
Experiments:
Assay in all cases: ITC; 0.5–1 mM peptide titrated into 10–40 μM ecdTDR; 25°C; 10 mM sodium citrate, 100 mM NaCl, pH 5.5; fitted to one set of binding sites; MicroCal Auto-iTC200
Conditions in all cases: both partners purified
[1] = target: T1, ecdTDR E231A mutant (Arabidopsis thaliana, UniProt Q9FII5 30-642, E231A)
T1 construct: TDR/PXY of A. thaliana, extracellular domain, residues 30-642; source: High Five insect cells (baculovirus), secreted, purified as the wild type (Ni-NTA, size-exclusion chromatography)
T1 sequence (looked up): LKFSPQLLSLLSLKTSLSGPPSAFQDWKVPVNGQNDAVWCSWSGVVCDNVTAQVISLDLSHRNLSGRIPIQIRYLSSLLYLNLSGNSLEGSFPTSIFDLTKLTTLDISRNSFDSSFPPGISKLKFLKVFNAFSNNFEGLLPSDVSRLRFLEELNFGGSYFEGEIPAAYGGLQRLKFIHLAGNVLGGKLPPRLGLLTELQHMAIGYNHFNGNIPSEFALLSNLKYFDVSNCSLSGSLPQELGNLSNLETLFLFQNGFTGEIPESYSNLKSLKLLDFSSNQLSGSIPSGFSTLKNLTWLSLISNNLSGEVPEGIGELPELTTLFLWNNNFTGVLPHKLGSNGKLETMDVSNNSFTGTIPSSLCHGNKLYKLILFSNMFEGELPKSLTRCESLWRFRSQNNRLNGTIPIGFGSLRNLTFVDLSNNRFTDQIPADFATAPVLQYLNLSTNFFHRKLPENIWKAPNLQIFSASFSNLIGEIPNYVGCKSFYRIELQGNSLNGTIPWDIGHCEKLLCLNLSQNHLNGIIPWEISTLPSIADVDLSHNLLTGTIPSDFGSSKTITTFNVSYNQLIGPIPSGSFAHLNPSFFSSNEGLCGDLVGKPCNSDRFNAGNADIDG

[2] = target: T2, ecdTDR F281 alanine mutant (Arabidopsis thaliana, UniProt Q9FII5 30-642, alanine substitution of F281)
T2 construct: TDR/PXY of A. thaliana, extracellular domain, residues 30-642; The text says only 'mutational analyses' of F281; source: High Five insect cells (baculovirus), secreted, purified as the wild type (Ni-NTA, size-exclusion chromatography)
T2 sequence (looked up): T1 sequence (looked up) with A202E, F252A

[3] = target: T3, ecdTDR Y188A mutant (Arabidopsis thaliana, UniProt Q9FII5 30-642, Y188A)
T3 construct: TDR/PXY of A. thaliana, extracellular domain, residues 30-642; source: High Five insect cells (baculovirus), secreted, purified as the wild type (Ni-NTA, size-exclusion chromatography)
T3 sequence (looked up): T1 sequence (looked up) with Y159A, A202E

[4] = target: T4, ecdTDR S162A mutant (Arabidopsis thaliana, UniProt Q9FII5 30-642, S162A)
T4 construct: TDR/PXY of A. thaliana, extracellular domain, residues 30-642; source: High Five insect cells (baculovirus), secreted, purified as the wild type (Ni-NTA, size-exclusion chromatography)
T4 sequence (looked up): T1 sequence (looked up) with S133A, A202E

Measured: binding result

B1: Tracheary Element Differentiation Inhibitory Factor (TDIF) peptide (peptide)
peptide: HEV[Hyp]SG[Hyp]NPISN
notes: TDIF, the 12-residue CLE peptide processed from CLE41 and CLE44 of A. thaliana; printed as HEV(Hyp)SG(Hyp)NPISN; numbers count on: the 12-residue peptide; CLE44 encodes the same peptide; also called wild type TDIF; wtTDIF; source: synthetic peptide (peptide 2.0)
binds: all assays above
